US20020077295A1
Where no end group is shown, it is not given here.

Molecular target: Nogo binding sites (axonal Nogo receptors) on chick dorsal root ganglion neurons (chick)
Assay: competition with 10 nM AP-Nogo binding to chick E12 DRG neurons (FIG. 3b)

Binder: RIYKGVIQAIQKSDEGHPFRAYLESEVAISEELVQKYSNS (not fully specified) [Pep2-41 (2-41 fragment of Nogo)]
- Ki: 150 nM
